Laboratory results reported in the DeepSol protein solubility set.

assay: soluble on expression in E. coli; label from the status in PepcDB or PDB records

| Sequence | soluble on expression in E. coli |
| --- | --- |
| MLELKPPLVLLSGPAGFGEYLKLMDHRYVGGVLLKTVTLHPKEGNPTPRMADSDFYVINRIGLENPGIHAFVENIPELPVPMIASLGGDSFEEYLEVARVFKKVADRFYAVEFNFSCPNVKEGGLSIVKNAEEWKKLLNTLRKELPDSFLIAKVGVEGIFVEDAAEFVMKTGWDGITLVNTVRGLHFEKDTMILGGLSGPVLKPIALRAVYEVKKRFPELFVIASGGVYSVKDAEEFLKVGADVIGVGSALFKDPGVVEEIGKYLLEVKR | soluble |
| MLEMLEYNHYQVQTHLENPTKYHIQQAQRQQVKQYLSTTLANKHANQVLSLPCPNQPGDHVMPPVPGSSAPNSPMAMLTLNSNCEKEGFYKFEEQNRAESECPGMNTHSRASCMQMDDVIDDIISLESSYNEEILGLMDPALQMANTLPVSGNLIDLYGNQGLPPPGLTISNSCPANLPNIKRELTESEARALAKERQKKDNHNLIERRRRFNINDRIKELGTLIPKSNDPDMRWNKGTILKASVDYIRKLQREQQRAKELENRQKKLEHANRHLLLRIQELEMQARAHGLSLIPSTGLCSPDLVNRIIKQEPVLENCSQDLLQHHADLTCTTTLDLTDGTITFNNNLGTGTEANQAYSVPTKMGSKLEDILMDDTLSPVGVTDPLLSSVSPGASKTSSRRSSMSMEETEHTC | soluble |
| MLEQMGIAAKQASYKLAQLSSREKNRVLEKIADELEAQSEIILNANAQDVADARANGLSEAMLDRLALTPARLKGIADDVRQVCNLADPVGQVIDGGVLDSGLRLERRRVPLGVIGVIYEARPNVTVDVASLCLKTGNAVILRGGKETCRTNAATVAVIQDALKSCGLPAGAVQAIDNPDRALVSEMLRMDKYIDMLIPRGGAGLHKLCREQSTIPVITGGIGVCHIYVDESVEIAEALKVIVNAKTQRPSTCNTVETLLVNKNIADSFLPALSKQMAESGVTLHADAAALAQLQAGPAKVVAVKAEEYDDEFLSLDLNVKIVSDLDDAIAHIREHGTQHSDAILTRDMRNAQRFVNEVDSSAVYVNASTRFTDGGQFGLGAEVAVSTQKLHARGPMGLEALTTYKWIGIGDYTIRA | soluble |
| MLFDLDGTVWEGGRALPFAVDSINQVNLPLMYVTNNASRGPEVVASLLSDMGIFTQPEQVLTSAQAAIDLALKEVPVGSNVLVLGTDSFKSLAAEAGYMVVNSADMEPVAVFHGHNPATSWTELSEAALAIRCGAKYYASNLDTTLPSERGLCVGNGSMVAAVVSATGVQPVSAGKPEAAMFHVAAEKLASERPLAVGDRLNTDIAGGVAAGFDTLHLLTGVSQHWALVHAIESERPTLIAEDLRALSSDRSVLMPQLQGDFNAYLQGTEIVLNGGSTASTSTEALRSVLSVAWQSAEFGGTVKPVSEHAIRCMSEWR | not soluble |
| MLFELLYTSIAPAGLSDTELLSILEKARAKNQALDITGMLVYHNREIMQILEGEELKVRGLFQTIFQDERHTSVEVFYQGNIDHRAFSEWSMAFKLLDENTVKKMLIGYENFNPAKSPISMIASSPNRGKKTFLKLRDSL | soluble |
| MLFYLISAIIFTTVAFAAPTPAPTLTVAEEMEAIFQNLTEEAQNDYFQILFDHTLTLAELDQKWDEWAEKHGIADKWAVYTSKWQARKEKFNETTVSVIERLPSTYKMLSEITANRNQTLSQVETALEELKEKFNLEVQLILILSKTLILNEEIVLGGGPIEVGNEVTGNSFRRMRDFKNKNRDVKSLLIPGPL | not soluble |
| MLGASRWRRTSAFSGIWRIPMSSNNSSRKVVTVDEQAFERTEDAGVDEDGFKVVDDKPEFRATVQQEKQAKVDSNHPDGIVQDFSHLPLAQEEKIRAREAELDHISAQAELGTQDGRAKRTRKVVTERRQRKRAERTPDRTDPRERLSRMELAKVNQEADRMAQRLRTGHSRAAVSRALAKRVAKGQDITKAVFDTMDALKAAPGAICPIEDVPDVQTDEVSIEGEVVQLWDASSRKIAQVGLVADDTGKIKFTSWRKSEPAFVQEGDTVRMRAVKKNWYEGRCSLAVTYDSMIVFPERDRRWWEELEHHHHHH | not soluble |
| MLGDVYHLFSGGKDSSLAAWILRKLGYEVRLVTITFGVLDNWKYAKETADILGFEHEVVRLPRELLNMAVEMCIEDGKPGRAIQFLHEKALEYVASRSYVKRISDGTRRDDKVPFLDLRKARSLEDRFNVAYIRPLLGLGYKTIRELANSIFVIEERESEKLEKGDYEAELRYMLRERGINPKTIFPSRHMQSRVVGIKDDELGRS | soluble |
| MLGNLKPQAPDKILALMGEFRADPRQGKIDLGVGVYKDATGHTPIMRAVHAAEQRMLETETTKTYAGLSGEPEFQKAMGELILGDGLKSETTATLATVGGTGALRQALELARMANPDLRVFVSDPTWPNHVSIMNFMGLPVQTYRYFDAETRGVDFEGMKADLAAAKKGDMVLLHGCCHNPTGANLTLDQWAEIASILEKTGALPLIDLAYQGFGDGLEEDAAGTRLIASRIPEVLIAASCSKNFGIYRERTGCLLALCADAATRELAQGAMAFLNRQTYSFPPFHGAKIVSTVLTTPELRADWMAELEAVRSGMLRLREQLAGELRDLSGSDRFGFVAEHRGMFSRLGATPEQVKRIKEEFGIYMVGDSRINIAGLNDNTIPILARAIIEVGV | soluble |
| MLGSRNIKFSVQIFKKRRSNCNVRCVVCGREIETGSLCGKCMVEKEEVAKIDEFEITVCSRCNLIRLGNRWVERSVEEVIEEMVLRNARVVEEFNVTEVAISQEHCVFRGEISGDEVKILVPLKYRINKVLCEKCSREAGGYYESIVQLRAAGRELSDEEIEKALEIVDEVISSAPEDQKAFISKLERKREGVNIFFGSRNIGKKVSRMIMKKLGGSITESKKLHTRIDGRDVYRFTYSVKLPEYREGDIVEKEGRFAVVRNSVAGKGLDILTGKTVNLGNERVAVRREDLKSGVVVNADPNAVEVVCEDGRLVTTPKPSGAEIGAEVKVFEINGKFFSVYEGGQSSEELEHHHHHH | soluble |
| MLHLPTIETSSAGRRRRKANSEVDSGAEEPTATSSSDDKSDYRLDLKKRLTTFLTSNSQMASSDSGVSGVESTVEHDLSELKASDSPMSHDGADSPRPELDRTDIVVCGECHTSFSLSCFSNFIEHKVSNCGGKLTPSDDCEVTPRNFDRSRRRTFNPAALIRCGRSTSANALLPNYNMDVTTDTNDLGSSSKSLTCCNCKERFGDVWTLLKHSYDIHGLRVCQEAIPESDVSVTSTSSPTSNESMHMSSRYNHNDTSSKIMHQTIKSESTMMNSFCSERLKEIVTRAGEQDQKPLMALRRLMPSEETEEEQVSAFTSTSLLNSRASQPQLPTVSSSAGFQTSGSMPNVWMQPSMLAAMQEYYASIQQMPYPMTNSTAVALLNISNNLQQQQQQQQQLQQQQQNLIAAQPQVATPQPPAPTPLFQSLNRLSTADESSYTPRPASVAIRRRASPEEELTPPRKSMKIEEEDQLIVVDDGELAEPAARKPNNIKKERCNFCNKVFTNRSNLIVHLRSHTGEKPYKCQLCPYACAQSSKLTRHMRTHGQQGKETYHCYICRMPFSVHSTLEKHMRKCVVSTQGRREGGSPPERSIRPTPSALAEATSLLALSAPSISVPPQPQASTVGQNQSQSHQIVLNWLHALNASNSTPTATSKEDMIEADEDMEETEASDLQSHQPLTSESNQIATVAN | not soluble |
| MLIDTDFFLSNRSDSLVLDVRSPEEYRRGHIPGAESFPLFSDAERAEVGTLYVRHSRQAAVERGLEFVGPRMAEMVREARSLAAGRDIILYCWRGGMRSESVAWLLSVAGLRIRRLRGGYKAYRRHFPDILKLYPWRFIVLGGYTGSGKTPILNELTQMGEQVIDLEGLAHHKGSAFGALGQEQQPTTEHFMNLLHDALSACDPNRPIWVESESKTIGRVFLPDDFYKVMRQAPLIELSVPRPVRIAHIAKEYGVYDAEALANSFEHIARRMGGAATTQAITALKEGRLEEAVSLALDYYDKAYAHSLAEFRESSSARLAVETDTPHETAIKLLELSHIKGLQS | not soluble |
| MLIEPRDPLIVRDGRPFTNSPGARAKSLPFPLPQTLAGAYRTRRALLEGLPLPERAEEVLRWGLRGPLLAEEGEGGWRLLAPRPLDALKLGEALYPLRPLELPQGAGTNLPEGLSPVGLPSPALKEKPAPLPAFWYWESFLEWLLQDAPAGFAPRGHEGPVPETRTHVALDPAAQTAREGFLFQTSGLEFVRGRRRLALVLWPEGPEPEGVFPLGGERRLAFWQKGGPGVPPLPEEVVAGLLRHRAARLVFLTPAFLGEAYLPKGRAFQGASVVAAVVGRPLAVSGWNLKEGKPKPSRRAVPAGSVYFVRLPEAWGEGEVRDWAEKVWFQNLSEEEQDRRDGFGLAALGLWDGKLRRWEEA | soluble |
| MLIFEGKEISTDSEGYLKETTQWSEALAVAIAANEGIELSAEHWEVVRFVREFYLEFNTSPAIRMLVKAMANKFGEEKGNSRYLYRLFPKGPAKQATKIAGLPKPVKCI | not soluble |
| MLILGHPLIPSARFVFIKNTDAIHSNTNNDIVCFEAHPKNLELAKYCCENSVHFSVIFLSHKIETDTFFLFNAFKPLYCIFKDIKQAILAQQHATNYLLDSKILFFMDLNDTELWEICAKSQIDGVISKDSLLLK | soluble |
| MLILSEQEIQRLYTMEEAISDVKEILRQKQAGNVNTPERTVLSFPHYDASILYMPSVKTGAAAVKVVSIFPHNPPLGKPTTQGVIILTDTKTEEHRMLCNATYLTRLRTGALSAIAADYLAKREASRLAVIGTGAMAREQVAGMLEVRGIEHIFLYNRTRSKAERFALEGW | not soluble |
| MLINKTKRAEQNLNNLPFLALQAEQIEFLGSSAEFKTQIIELIRNAKKRIYVTALYWQKDEAGQEILDEIYRVKQENPHLDVKVLIDWHRAQRNLLGAEKSATNADWYCEQRQTYQLPDDPNMFFGVPINTREVFGVLHVKGFVFDDTVLYSGASINNVYLHQFEKYRYDRYQKITHAELADSMVNFINDYLLDFSAVYPLDVTNRPRTKEIRGNIRAYRKDLAQNGEYSLKSAVKLPNVLSVSPLFGLGASGNELNQVIEDLFLQVQKKLVICTPYFNFPRTLQHKIATLLENGKRVEIIVGDKVANDFYIPPEQPFKMAGALPYLYESNLRRFCEKFETQIESGQLVVRLWRDGDNTYHLKGVWVDDRYILLTGNNLNPRAWRLDAENGLLIYDPQQQLLAQVEKEQNQIRQHTKVLKHYTELEELNQYPEPVQKLLKKFARIKADKLVKMILAAALEHHHHHH | soluble |
| MLIQIDSNVLFANVDTLGNIVSTTTNGIGSAGKTTLDGHYSSISGFDQLGASHGAVIKGGIGSAMKTMQQLTEQVNWLKEALNSSRLAFSSQNNFVSRGMDIADEGGNVGGEEVVFPNRPDVVYEDFSFPQPVVQKASSIDELAAAFASTNDSEVEEAVATWKSLSEMATETSQDLRNVAAEVGEHNHGAVFDKAVERIGEIAANAESFAANASTMANHVGLMSQLKTMRMSDVLSAQQALSKIEDPMERKVLEEEFLSRLQSAIQSDVGQSVPVIRNLVTMRSTGGNSGQSIATGMETIAGNGKFSHTGLSSASGATLQPATMGQHPDNLGDFAAVNSRTGQSIDPFSLSTQQAGWTSPDFQPSAGGSSGLNPIKAPLTSAHSSMPASAQTVSTHPSSATGLGVTPIGPRADAMAMYPSANSKPHNSGLNGTSKIGGSSIAQLGASPQSGVSRSAAFGAAGTQSAHSARMSPMMGAPMGAAGSKKRGKTKSVTSSVEEDNNIAALLGESPAVVPGVIGSWVRG | not soluble |
| MLIVGEDFGMRVSVLASSSSGNATYIETPGHKVLVDAGLSGKKIETLMQSIGRDLTDVDSVFITHEHSDHVRGVGVLARRYPKLSVYANAKTFAALPKSVGKIPEDQLRLFDMGATLTLGDLDVESFGVSHDAAAPQFYQFHHDGKTFTILTDTGYVSDRVAGTIRDADAYVMECNHDLEMLRTGPYPWPLKQRILGDQGHLSNEDGADALMDVIGLRTKRIYLGHLSPHNNNKPLAHLTVASLLAQQGLAVDHDFRIYDTDPAVADPLFVVLEHHHHHH | not soluble |
